Assay results: the supplement of paper PMC10567573

B1: VENTX (parent)
chain: VFQHHQYLSPLERKRLAREMQLSE

Variants of: B1
Assay: protein stability index of a GFP-peptide fusion (GPS, HEK-293T) (PSI 1-6); higher = more stable
Settings: c terminus: a fixed tail appended
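Also: lentivirally expressed fusions sorted by FACS into six bins by GFP to DsRed ratio, PSI derived from sequencing read proportions per bin multiplied by bin number.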

Protein stability index of substitutions, site by site:
L11: K 3.03, G 1.95, S 2.64, Y 2.66, W 2.84, Q 2.73, T 2.93, V 2.53, C 2.4, D 2.97, A 3, R 2.31, N 3.2, P 2.1, F 2.42, I 2.4, H 2.77, E 3.41, M 2.65
R13: A 2.32, K 2.62, E 2.44, W 1.87, N 3.31, T 2.32, G 1.83, I 2.26, V 2.4, M 2.43, Y 1.77, C 2.45, D 2.56, S 2.44, P 2.06, H 2.07, L 2.66, Q 2.94, F 1.92
S9: N 2.59, I 1.69, A 2, C 2.17, K 2.39, Y 2.21, M 2.33, Q 3.25, P 2.88, F 1.99, R 2.64, W 1.52, V 2.08, D 2.73, T 2.21, L 2.22, H 2.38, G 2.38, E 2.86
H4: Y 2.21, A 3.37, K 2.5, M 2.31, L 2.89, I 2.43, D 3.68, R 2.37, P 3.27, T 3.06, V 2.7, Q 3.5, N 2.85, W 2.03, C 2.56, G 3.26, F 1.69, S 2.91, E 3.52
F2: T 3.05, L 3.22, R 3.02, P 4.18, G 3.57, E 4.48, D 4.44, W 2.42, H 3.38, I 3.12, A 2.11, S 3.91, K 3.61, N 2.97, Y 3.01, V 2.55, C 3.08, Q 4, M 3.1
R18: D 2.77, E 2.8, Y 2, V 1.63, P 2.13, S 3, T 2.9, M 2.21, H 2.74, F 2.21, N 2.34, G 2.68, Q 2.73, W 2.21, K 2.65, A 2.28, L 2.33, C 2.58, I 2.67
K14: R 2.67, A 2.67, M 3.11, T 2.58, S 2.81, E 3.3, N 2.83, L 2.19, H 1.97, G 2.39, F 1.75, V 2.63, W 1.81, D 3.01, Y 2.58, Q 2.12, I 2.88, C 2.98, P 2.4
R15: S 1.97, V 1.92, F 1.72, E 2.41, K 2.44, N 2.85, M 2.02, T 2.97, C 1.99, L 2.02, P 2.36, H 2.54, A 1.79, I 2.09, Y 2.04, G 2.6, W 2.21, D 2.6, Q 2.57
Q3: W 1.79, D 4.04, C 1.85, Y 2.56, M 2.27, L 1.29, S 3.81, N 3.05, T 2.96, A 3.03, E 3.84, F 1.66, V 2.78, P 2.98, K 3, G 2.82, I 2.07, R 2.17, H 2.11
L16: R 2.33, P 2.78, A 2, D 3.03, Y 2.31, F 2.28, V 2.75, T 2.71, H 2.82, C 2.62, Q 2.7, I 2.71, S 2.8, K 2.52, E 3.1, G 2.9, N 2.92, M 2.48, W 2.01
A17: L 2.79, P 2.98, I 2.36, Q 2.59, Y 3.02, G 2.69, F 2.5, W 2.24, S 3.1, C 1.84, T 2.97, N 2.38, K 2.75, H 2.24, D 2.45, R 2.98, V 2.14, E 2.93, M 2.32
L8: I 3.02, N 2.72, F 2.62, P 2.52, D 3.31, E 3.66, C 2.22, W 1.83, M 2.55, R 2.25, Y 2.32, V 2.41, T 2.4, Q 2.89, A 2.65, S 2.09, H 2.75, K 3.6, G 2.42
H5: V 2.78, N 2.83, F 2.96, I 2.08, S 2.63, G 3.71, M 3.19, A 2.5, T 4.21, E 3.71, Q 3.01, Y 2.43, L 2.42, W 1.96, D 3.47, R 1.93, P 3.21, C 2.17, K 2.94
E12: F 2.58, H 2.21, L 2.13, I 2.66, K 1.82, N 2.56, D 2.39, Q 2.33, A 1.96, S 2.74, V 2.74, P 2.99, T 2.08, W 1.8, M 2.74, R 2.45, C 1.98, Y 2.19, G 2.07
P10: T 1.86, A 2.62, D 2.31, M 2.23, S 2.89, G 2.23, L 2.67, Y 2.54, Q 2.46, C 2.32, W 1.96, F 1.91, K 2.52, I 2.42, H 2.73, E 2.91, N 2.82, V 2.63
Q6: Y 2.09, F 1.84, N 3.05, M 2.56, S 2.3, I 2.17, K 2.69, D 3.23, L 2.02, P 2.09, A 2.75, E 3.66, G 2.51, W 2.17, V 2.42, R 2.47, T 2.75, H 3.06, C 1.83
Y7: R 2.42, T 3.49, S 2.68, I 2.54, K 2.71, V 3.48, F 2.99, H 2.33, A 2.98, G 2.34, E 3.22, L 2.5, Q 3.27, W 2.11, M 3.04, D 3.84, P 3.33, C 2.5, N 2.36
V1: T 2.88, P 2.35, L 3.38, I 2.36, W 1.92, S 3.1, N 2.9, M 2.38, Q 2.19, R 2.42, Y 2.36, K 2.6
